Consider 6 sequences from paper PMC11871449.

For this data set, the target named is TDP-43 RRMs (RRM1-RRM2) (UniProt Q13148). Briefly: EMSA (multiplexed). The note with it: 20 mM Tris-HCl pH 7.5, 150 mM KCl, 5 mM MgCl2, 10% glycerol, 30 min, room temperature, 2 nM each labeled RNA (mEMSA), 5.5% TBE gel (4% for competition). On the technique in general: A gel shift assay detects complexes by their altered migration in electrophoresis.
Where [1] appears, read: 5 mM Mg2+, fluorophore-UTP incorporated during transcription.
Where [2] appears, read: 5 mM Mg2+, fluorophore-UTP incorporated during transcription (labeled form).

Broadly, the Kd is a measure of binding affinity in units of concentration. Low readings indicate higher affinity, high ones lower affinity.

Chain of UniProt Q13148 (Q13148 101-269): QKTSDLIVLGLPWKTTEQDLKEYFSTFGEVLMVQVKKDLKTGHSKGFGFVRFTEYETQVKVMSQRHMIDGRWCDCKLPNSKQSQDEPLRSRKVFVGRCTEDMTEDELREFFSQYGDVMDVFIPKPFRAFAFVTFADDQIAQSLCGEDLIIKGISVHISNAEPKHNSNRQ

In turn, “UGGCUAUCCUUUAAUGAUGCGUGUGGAAUGUGUGUGUGUGCUCAGGCAAUUAUUUUGCUAAGAAUGUGAAUUCAAGUGCAGCUCAAUACUAGCUUCAGUAUAAAAACUGUACAGAUUUUUGUAUAGCUGAUAAGAUUCUCUGUAGAGAAAAUACUUUUAAAAAAUGCAGGUUGUAGCUUUUUGAUGGGCUACUCAUACAGUUAGAUUUUACAGCUUCUGAUGUUGAAUGUUCCUAAAUAUUUAAUGGUUUUUUUAAUUUCUUGUGUAUGGUAGCACAGCAAAGCUU [HMGB2[739-1022] 3'UTR]” had a Kd under setting [1] of 148 nM. This counts as sub-micromolar.
On to “GCGAGGAGCCUUUCAUCCGAAGGCGGGACGAUGCCGGAUAAUCGGCAGCCGAGGAACCGGCAGCCGAGGAUCCGCUCCGGGAACGAGCCUCGUUCCGCGCCCGCCAUGGAACCGGAUGGUCGCGGUGCCUGGGCCCACAGUCGCGCCGCGCUCGACCGCCUGGAGAAGCUGCUGCGCUGCUCGCGUUGUACUAACAUUCUGAGAGAGCC [BARD1[86-310] negative control]”, for which, under setting [2], the equilibrium dissociation constant (Kd) came out at 1790 nM.
Consider “AACACCAUGCUGGUUAUUUUGGCGGCUGUAGUUGUGGGGGGAUGUGUGUGUGCACGUGUGUGUGUGUGUGUGUGUGUGUGUGUGUGUGUGUGUUCUGUGACCUCCUGUCCCCAUGGUACGUCCCACCCUGUCCCCAGAUCCCCUAUUCCCUCCACAAUAACAGAAACACUCCCAGGGACUCUGGGGAGAGGCUGAGGACAAAUACCUGCUGUCACUCCAGAGGACAUUUUUUUUAGCAAUAAAAUUGAG [SLC1A5[2620-2869] 3'UTR]”, for which the Kd under setting [1] was determined as 82 nM.
On to “GUGGGCUUUUCCAUUGUCCCCCUGGCCUCCAGGCUCCUCCUCUGCCUCUCCAUGGAGUGGGUGGGGAGGUGGUGGGGGCCGGCGUCCCCUGCGUGUGUGUGUGUGUGUGUGUGUGUGUGUGGAUGUAUUGACCUGUGUUUCCCAAGACAGCAGGUGCCACGGCCCGCCCCGCCUGCCAGCCCGAAUUCCCGUUCUCCUGUGUCUACUAACAAGGACGGAUCCAGCU [CSNK1E[2054-2264] 3'UTR]”, for which the Kd under setting [1] is 101 nM. The Kd values of the last two sequences are within 1.5-fold of each other.
In turn, “GAUUGAUGGUGGUGCCGAGGCAUGAAAGGCUAGUAUGAGCGAGAAAAGGAGAGAGCGCGUGCAGAGACUUGGUGGUGCAUAAUGGAUAUUUUUUAACUUGGCGAGAUGUGUCUCUCAAUCCUGUGGCUUUGGUGAGAGAGUGUGCG [TARDBP[2140-2283] 3'UTR]” showed a dissociation constant (Kd) under setting [2] of 272 nM.
“AUCCCGCUGCUAUUAGAAUGCAUUGUGAAACGACUGGAGUAUGAUUAAAAGUUGUGUUCCCCAAUGCUUGGAGUAGUGAUUGUUGAAGGAAAAAAUCCAGCUGAGUGAUAAAGGCUGAGUGUUGAGGAAAUUUCUGCAGUUUUAAGCAGUCGUAUUUGUGAUUGAAGCUGAGUACAUUUUGCUGGUGUAUUUUUAGGUAAAAUGCUUUUUGUUCAUUUCUGGUGGUGGGAGGGGACUGAAGCCUUUAGUCUUUUCCAGAUGCAACCUUAAAAUCAGUGACAAGAAACAUUCCAAACAAGC [MALAT1[6638-6938]]” registered an equilibrium dissociation constant (Kd) (fluorophore-UTP incorporated during transcription) of 127 nM.
